Results from publication PMC6056499, “A systematic dissection of sequence elements determining β-Klotho and FGF interaction and signaling” (Scientific Reports, 2018).

Tests used:
[1] = molecular target: human β-Klotho extracellular domain (aa1–992) fused with a 6 × His tag at the C-terminus (UniProt Q86Z14); assay: AlphaScreen; details: parent: est. 1.0, read off a plot
mature human FGF21 = mature human FGF21 (UniProt Q9NSA1); assay: solid-phase binding assay; details: β-Klotho captured from conditioned media; parent: est. 1.0; read off a plot
[2] = molecular target: human β-Klotho extracellular domain (aa1–992) fused with a 6 × His tag at the C-terminus (UniProt Q86Z14); assay: solid-phase binding assay; details: parent: est. 1.0; read off a plot
[3] = competition with FGF19 for β-Klotho
[4] = competition with FGF21 for β-Klotho

Sequence of human β-Klotho extracellular domain (aa1–992) fused with a 6 × His tag at the C-terminus (Q86Z14 53-992): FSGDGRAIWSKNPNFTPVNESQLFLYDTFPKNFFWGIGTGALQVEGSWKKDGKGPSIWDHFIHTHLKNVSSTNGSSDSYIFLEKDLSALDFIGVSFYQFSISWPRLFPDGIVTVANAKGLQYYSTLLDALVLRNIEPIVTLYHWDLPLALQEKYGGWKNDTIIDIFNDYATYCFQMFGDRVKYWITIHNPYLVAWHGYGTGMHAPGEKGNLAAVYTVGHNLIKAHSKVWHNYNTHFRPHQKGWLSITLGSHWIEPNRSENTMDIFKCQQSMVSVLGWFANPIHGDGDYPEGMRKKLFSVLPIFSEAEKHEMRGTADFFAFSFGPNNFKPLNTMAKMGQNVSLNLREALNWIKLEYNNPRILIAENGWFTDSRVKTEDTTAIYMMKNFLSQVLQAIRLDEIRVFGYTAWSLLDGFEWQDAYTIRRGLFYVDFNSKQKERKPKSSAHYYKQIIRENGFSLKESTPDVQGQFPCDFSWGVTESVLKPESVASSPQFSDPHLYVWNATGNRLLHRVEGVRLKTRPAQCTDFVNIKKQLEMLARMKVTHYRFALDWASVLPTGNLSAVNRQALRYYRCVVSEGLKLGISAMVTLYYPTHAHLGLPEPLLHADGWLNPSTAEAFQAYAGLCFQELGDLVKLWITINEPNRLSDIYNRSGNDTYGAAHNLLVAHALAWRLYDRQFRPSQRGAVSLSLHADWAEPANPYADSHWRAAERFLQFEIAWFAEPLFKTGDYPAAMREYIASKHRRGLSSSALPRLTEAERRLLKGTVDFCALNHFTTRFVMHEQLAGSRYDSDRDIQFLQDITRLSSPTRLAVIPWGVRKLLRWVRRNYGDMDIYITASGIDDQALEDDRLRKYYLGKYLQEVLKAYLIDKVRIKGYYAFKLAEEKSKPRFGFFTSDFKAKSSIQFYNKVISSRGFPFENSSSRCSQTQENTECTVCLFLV
Sequence of FGF19 C-terminal peptide, WT FGF19^185–216 (from UniProt O95750) 194T-A (O95750 185-216, change not shown): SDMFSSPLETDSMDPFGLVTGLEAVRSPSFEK
Sequence of FGF19 C-terminal peptide, WT FGF19^185–216 (from UniProt O95750) 215E-A (O95750 185-216, change not shown): as above
Sequence of FGF19 C-terminal peptide, WT FGF19^185–216 (from UniProt O95750) 191P-A (O95750 185-216, change not shown): as above
Sequence of FGF19 C-terminal peptide, WT FGF19^185–216 (from UniProt O95750) 209V-A (O95750 185-216, change not shown): as above
Sequence of FGF19 C-terminal peptide, WT FGF19^185–216 (from UniProt O95750) 185S-A (O95750 185-216, change not shown): as above
Sequence of FGF19 C-terminal peptide, WT FGF19^185–216 (from UniProt O95750) 193E-A (O95750 185-216, change not shown): as above
Sequence of FGF19 C-terminal peptide, WT FGF19^185–216 (from UniProt O95750) 190S-A (O95750 185-216, change not shown): as above
Sequence of FGF19 C-terminal peptide, WT FGF19^185–216 (from UniProt O95750) 201G-A (O95750 185-216, change not shown): as above
Sequence of FGF19 C-terminal peptide, WT FGF19^185–216 (from UniProt O95750) 207E-A (O95750 185-216, change not shown): as above
Sequence of FGF19 C-terminal peptide, WT FGF19^185–216 (from UniProt O95750) 189S-A (O95750 185-216, change not shown): as above
Sequence of FGF19 C-terminal peptide, WT FGF19^185–216 (from UniProt O95750) 187M-A (O95750 185-216, change not shown): as above
Sequence of FGF19 C-terminal peptide, WT FGF19^185–216 (from UniProt O95750) 204T-A (O95750 185-216, change not shown): as above
Sequence of FGF19 C-terminal peptide, WT FGF19^185–216 (from UniProt O95750) 216K-A (O95750 185-216, change not shown): as above
Sequence of FGF19 C-terminal peptide, WT FGF19^185–216 (from UniProt O95750) 197M-A (O95750 185-216, change not shown): as above
Sequence of FGF19 C-terminal peptide, WT FGF19^185–216 (from UniProt O95750) 192L-A (O95750 185-216, change not shown): as above
Sequence of FGF19 C-terminal peptide, WT FGF19^185–216 (from UniProt O95750) 203V-A (O95750 185-216, change not shown): as above
Sequence of FGF19 C-terminal peptide, WT FGF19^185–216 (from UniProt O95750) 188F-A (O95750 185-216, change not shown): as above
Sequence of FGF19 C-terminal peptide, WT FGF19^185–216 (from UniProt O95750) 206L-A (O95750 185-216, change not shown): as above
Sequence of FGF19 C-terminal peptide, WT FGF19^185–216 (from UniProt O95750) 195D-A (O95750 185-216, change not shown): as above
Sequence of FGF19 C-terminal peptide, WT FGF19^185–216 (from UniProt O95750) 186D-A (O95750 185-216, change not shown): as above
Sequence of FGF19 C-terminal peptide, WT FGF19^185–216 (from UniProt O95750) 196S-A (O95750 185-216, change not shown): as above
Sequence of FGF19 C-terminal peptide, WT FGF19^185–216 (from UniProt O95750) 205G-A (O95750 185-216, change not shown): as above
Sequence of FGF19 C-terminal peptide, WT FGF19^185–216 (from UniProt O95750) 210R-A (O95750 185-216, change not shown): as above
Sequence of mature human FGF21 polypeptide fused with the human Fc fragment at the N-terminus (Fc-FGF21), wild type (from UniProt Q9NSA1) 205P-R (Q9NSA1 29-209, change not shown): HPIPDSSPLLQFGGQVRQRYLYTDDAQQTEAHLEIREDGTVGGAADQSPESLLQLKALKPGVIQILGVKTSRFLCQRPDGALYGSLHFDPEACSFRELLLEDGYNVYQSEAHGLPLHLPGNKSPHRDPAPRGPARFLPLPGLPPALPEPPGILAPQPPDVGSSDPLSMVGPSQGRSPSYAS
Sequence of mature human FGF21 polypeptide fused with the human Fc fragment at the N-terminus (Fc-FGF21), wild type (from UniProt Q9NSA1) 209S-R (Q9NSA1 29-209, change not shown): as above
Sequence of mature human FGF21 polypeptide fused with the human Fc fragment at the N-terminus (Fc-FGF21), wild type (from UniProt Q9NSA1) 203R-A (Q9NSA1 29-209, change not shown): as above
Sequence of mature human FGF21 polypeptide fused with the human Fc fragment at the N-terminus (Fc-FGF21), wild type (from UniProt Q9NSA1) 208A-R (Q9NSA1 29-209, change not shown): as above
Sequence of mature human FGF21 polypeptide fused with the human Fc fragment at the N-terminus (Fc-FGF21), wild type (from UniProt Q9NSA1) 209S-A (Q9NSA1 29-209, change not shown): as above
Sequence of mature human FGF21 polypeptide fused with the human Fc fragment at the N-terminus (Fc-FGF21), wild type (from UniProt Q9NSA1) 202G-R (Q9NSA1 29-209, change not shown): as above
Sequence of FGF19 C-terminal peptide, WT FGF19^185–216 (from UniProt O95750) 214F-A (O95750 185-216, change not shown): as the sequence (O95750 185-216, change not shown) above
Sequence of FGF19 C-terminal peptide, WT FGF19^185–216 (from UniProt O95750) 213S-A (O95750 185-216, change not shown): as above

ratio to parent [1, 3] | ratio to parent [1, 4] | ratio to parent (mature human FGF21) | ratio to parent [2] | Substance
2.7 | 1.4 |  |  | FGF19 C-terminal peptide, WT FGF19^185–216 (from UniProt O95750) 188F-A
1.7 | 1.3 |  |  | FGF19 C-terminal peptide, WT FGF19^185–216 (from UniProt O95750) 189S-A
0.8 | 0.5 |  |  | FGF19 C-terminal peptide, WT FGF19^185–216 (from UniProt O95750) 191P-A
11 | 7.5 |  |  | FGF19 C-terminal peptide, WT FGF19^185–216 (from UniProt O95750) 192L-A
9.8 | 13 |  |  | FGF19 C-terminal peptide, WT FGF19^185–216 (from UniProt O95750) 196S-A
0.8 | 0.3 |  |  | FGF19 C-terminal peptide, WT FGF19^185–216 (from UniProt O95750) 197M-A
19 | 20 |  |  | FGF19 C-terminal peptide, WT FGF19^185–216 (from UniProt O95750) 201G-A
3.8 | 5.5 |  |  | FGF19 C-terminal peptide, WT FGF19^185–216 (from UniProt O95750) 203V-A
1.6 | 3.2 |  |  | FGF19 C-terminal peptide, WT FGF19^185–216 (from UniProt O95750) 204T-A
1.3 | 1.4 |  |  | FGF19 C-terminal peptide, WT FGF19^185–216 (from UniProt O95750) 205G-A
0.9 | 0.8 |  |  | FGF19 C-terminal peptide, WT FGF19^185–216 (from UniProt O95750) 206L-A
0.6 | 1.1 |  |  | FGF19 C-terminal peptide, WT FGF19^185–216 (from UniProt O95750) 207E-A
0.6 | 0.6 |  |  | FGF19 C-terminal peptide, WT FGF19^185–216 (from UniProt O95750) 209V-A
90 |  |  |  | FGF19 C-terminal peptide, WT FGF19^185–216 (from UniProt O95750) 213S-A
220 |  |  |  | FGF19 C-terminal peptide, WT FGF19^185–216 (from UniProt O95750) 214F-A
 |  | 30 |  | human β-Klotho extracellular domain (aa1–992) fused with a 6 × His tag at the C-terminus (from UniProt Q86Z14) 389G-A
 |  | 4.5 |  | human β-Klotho extracellular domain (aa1–992) fused with a 6 × His tag at the C-terminus (from UniProt Q86Z14) 531E-A
 |  | 15 |  | human β-Klotho extracellular domain (aa1–992) fused with a 6 × His tag at the C-terminus (from UniProt Q86Z14) 861R-A
 |  | 25 |  | human β-Klotho extracellular domain (aa1–992) fused with a 6 × His tag at the C-terminus (from UniProt Q86Z14) 862L-R
 |  |  | 4.8 | mature human FGF21 polypeptide fused with the human Fc fragment at the N-terminus (Fc-FGF21), wild type (from UniProt Q9NSA1) 202G-R

Continued, substance first:

Substance | ratio to parent [1, 3] | ratio to parent [1, 4] | ratio to parent (mature human FGF21) | ratio to parent [2]
FGF19 C-terminal peptide, WT FGF19^185–216 (from UniProt O95750) 185S-A | 1.4 | 0.8 |  | 
FGF19 C-terminal peptide, WT FGF19^185–216 (from UniProt O95750) 186D-A | 0.8 | 0.7 |  | 
FGF19 C-terminal peptide, WT FGF19^185–216 (from UniProt O95750) 187M-A | 1.2 | 0.9 |  | 
FGF19 C-terminal peptide, WT FGF19^185–216 (from UniProt O95750) 190S-A | 2.9 | 1.4 |  | 
FGF19 C-terminal peptide, WT FGF19^185–216 (from UniProt O95750) 193E-A | 0.3 | 0.3 |  | 
FGF19 C-terminal peptide, WT FGF19^185–216 (from UniProt O95750) 194T-A | 2.1 | 1.4 |  | 
FGF19 C-terminal peptide, WT FGF19^185–216 (from UniProt O95750) 195D-A | 5.5 | 4.5 |  | 
FGF19 C-terminal peptide, WT FGF19^185–216 (from UniProt O95750) 210R-A | 1.2 | 1.4 |  | 
FGF19 C-terminal peptide, WT FGF19^185–216 (from UniProt O95750) 215E-A | 7 | 5.2 |  | 
FGF19 C-terminal peptide, WT FGF19^185–216 (from UniProt O95750) 216K-A | 0.2 | 0.2 |  | 
human β-Klotho extracellular domain (aa1–992) fused with a 6 × His tag at the C-terminus (from UniProt Q86Z14) 380K-A |  |  | 35 | 
human β-Klotho extracellular domain (aa1–992) fused with a 6 × His tag at the C-terminus (from UniProt Q86Z14) 381P-A |  |  | 5 | 
human β-Klotho extracellular domain (aa1–992) fused with a 6 × His tag at the C-terminus (from UniProt Q86Z14) 381P-R |  |  | 21 | 
human β-Klotho extracellular domain (aa1–992) fused with a 6 × His tag at the C-terminus (from UniProt Q86Z14) 389G-R |  |  | 3.5 | 
human β-Klotho extracellular domain (aa1–992) fused with a 6 × His tag at the C-terminus (from UniProt Q86Z14) 431T-R |  |  | 10 | 
human β-Klotho extracellular domain (aa1–992) fused with a 6 × His tag at the C-terminus (from UniProt Q86Z14) 437K-A |  |  | 270 | 
human β-Klotho extracellular domain (aa1–992) fused with a 6 × His tag at the C-terminus (from UniProt Q86Z14) 437K-R |  |  | 5 | 
human β-Klotho extracellular domain (aa1–992) fused with a 6 × His tag at the C-terminus (from UniProt Q86Z14) 862L-A |  |  | 6 | 
mature human FGF21 polypeptide fused with the human Fc fragment at the N-terminus (Fc-FGF21), wild type (from UniProt Q9NSA1) 203R-A |  |  |  | 2
mature human FGF21 polypeptide fused with the human Fc fragment at the N-terminus (Fc-FGF21), wild type (from UniProt Q9NSA1) 205P-R |  |  |  | 220
mature human FGF21 polypeptide fused with the human Fc fragment at the N-terminus (Fc-FGF21), wild type (from UniProt Q9NSA1) 208A-R |  |  |  | 9
mature human FGF21 polypeptide fused with the human Fc fragment at the N-terminus (Fc-FGF21), wild type (from UniProt Q9NSA1) 209S-A |  |  |  | 0.5
mature human FGF21 polypeptide fused with the human Fc fragment at the N-terminus (Fc-FGF21), wild type (from UniProt Q9NSA1) 209S-R |  |  |  | 1.6
